How the values were obtained:
GDPMK = GDPMK (Escherichia coli, UniProt P37128, E100A); experiment: X-ray crystal structure, […] Å; format: binding; settings: Mg2+; active site; co-crystallised at pH 8.5
SEC = molecular target: the molecule itself; experiment: SEC
phosphate release = substrate: Nc1nc2c(ncn2[C@@H]2O[C@H](COP(=O)(O)OP(=O)(O)O[C@H]3O[C@H](CO)[C@@H](O)[C@H](O)[C@@H]3O)[C@@H](O)[C@H]2O)c(=O)[nH]1; experiment: phosphate release; format: biochemical, Escherichia coli; settings: Mg2+, pH 8.5, 37 °C
crystal structure = molecular target: the molecule itself; experiment: crystal structure

| Molecule | Km (phosphate release) | kcat (phosphate release) | other results |
| --- | --- | --- | --- |
| Nc1nc2c(ncn2[C@@H]2O[C@H](COP(=O)(O)OP(=O)(O)O[C@H]3O[C@H](CO)[C@@H](O)[C@H](O)[C@@H]3O)[C@@H](O)[C@H]2O)c(=O)[nH]1 [GDP-mannose] | – | – | X-ray crystal structure, 2.45 Å (GDPMK): The structure of the complex of the GDPMK E100A mutant with GDP-mannose and magnesium |
| GDPMK, Nudix GDP-mannose hydrolase from E. coli (product of the gene yffH), wild type (enzyme, UniProt P37128 1-191, looked up) MTQQITLIKDKILSDNYFTLHNITYDLTRKDGEVIRHKREVYDRGNGATILLYNTKKKTVVLIRQFRVATWVNGNESGQLIESCAGLLDNDEPEVCIRKEAIEETGYEVGEVRKLFELYMSPGGVTELIHFFIAEYSDNQRANAGGGVEDEDIEVLELPFSQALEMIKTGEIRDGKTVLLLNYLQTSHLMD | 659 ± 65 µM | 90.2 ± 6.7 s⁻¹ | stoichiometry N (SEC): 2 |
| GDPMK (Escherichia coli K-12; E149A) (protein) MTQQITLIKDKILSDNYFTLHNITYDLTRKDGEVIRHKREVYDRGNGATILLYNTKKKTVVLIRQFRVATWVNGNESGQLIESCAGLLDNDEPEVCIRKEAIEETGYEVGEVRKLFELYMSPGGVTELIHFFIAEYSDNQRANAGGGVADEDIEVLELPFSQALEMIKTGEIRDGKTVLLLNYLQTSHLMD | 555 ± 85 µM | 80.6 ± 6.3 s⁻¹ | – |
| GDPMK (Escherichia coli K-12; E151A) (protein) MTQQITLIKDKILSDNYFTLHNITYDLTRKDGEVIRHKREVYDRGNGATILLYNTKKKTVVLIRQFRVATWVNGNESGQLIESCAGLLDNDEPEVCIRKEAIEETGYEVGEVRKLFELYMSPGGVTELIHFFIAEYSDNQRANAGGGVEDADIEVLELPFSQALEMIKTGEIRDGKTVLLLNYLQTSHLMD | 594 ± 140 µM | 21.3 ± 4.6 s⁻¹ | – |
| GDPMK (Escherichia coli K-12; K176A) (protein) MTQQITLIKDKILSDNYFTLHNITYDLTRKDGEVIRHKREVYDRGNGATILLYNTKKKTVVLIRQFRVATWVNGNESGQLIESCAGLLDNDEPEVCIRKEAIEETGYEVGEVRKLFELYMSPGGVTELIHFFIAEYSDNQRANAGGGVEDEDIEVLELPFSQALEMIKTGEIRDGATVLLLNYLQTSHLMD | – | 0.11 ± 0.04 s⁻¹ | – |
| GDPMK (Escherichia coli K-12; R44S) (protein) MTQQITLIKDKILSDNYFTLHNITYDLTRKDGEVIRHKREVYDSGNGATILLYNTKKKTVVLIRQFRVATWVNGNESGQLIESCAGLLDNDEPEVCIRKEAIEETGYEVGEVRKLFELYMSPGGVTELIHFFIAEYSDNQRANAGGGVEDEDIEVLELPFSQALEMIKTGEIRDGKTVLLLNYLQTSHLMD | – | 1.69 ± 0.12 s⁻¹ | – |
| GDPMK E100A mutant (enzyme, E. coli, UniProt P37128 1-191, looked up) MTQQITLIKDKILSDNYFTLHNITYDLTRKDGEVIRHKREVYDRGNGATILLYNTKKKTVVLIRQFRVATWVNGNESGQLIESCAGLLDNDEPEVCIRKAAIEETGYEVGEVRKLFELYMSPGGVTELIHFFIAEYSDNQRANAGGGVEDEDIEVLELPFSQALEMIKTGEIRDGKTVLLLNYLQTSHLMD | – | – | binding result (crystal structure): binds |
